Assay results: the supplement of paper PMC12764529
± gives the half width of the 95% confidence interval.

Columns and labels:
[1] = folding stability dG unfold from trypsin proteolysis; higher = more stable
In short: (§1)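 Only designs with AlphaFold2 dimer inter-PAE above 15 were retained; each was a mini-protein under 80 residues with no cysteine, in a PA-tagged cDNA display construct. After digestion with trypsin and chymotrypsin and sequencing, K50 was inferred by Bayesian fitting of counts, and unfolding free energy was derived per protease or combined against a sequence-predicted unfolded-state K50 and a shared folded-state K50.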

[2] = folding stability dG unfold from chymotrypsin proteolysis; higher = more stable
In short: as §1

[3] = folding stability dG unfold (combined trypsin and chymotrypsin); higher = more stable
In short: as §1

Sequence | folding stability dG unfold [1] [kcal/mol] | folding stability dG unfold [2] [kcal/mol] | folding stability dG unfold [3] [kcal/mol]
SAGSSTPGSEVVRVTSEVSEGESNRTVSYTTYVFEPGGPALRPLSTSTTTVPAAPGVPEGGTKTISLPGSAG [r5_861_JUSTAS] | -0.419 ± 0.064 | -0.755 ± 0.2 | -0.534 ± 0.11
SAGQPGKPIRKYTFDLPDDDKITVEVYMYPDGNMMIKIEDNNGKERNIMIPANDLQNMPIEDLVKWLRSAGG [r19_47_TrROS] | 2.73 ± 0.12 | 3.57 ± 0.062 | 3.33 ± 0.36
SAMKITIEVIKLPDGYYVVRITVYDKNGEKVEERELVFSSLEDLLAALKELFPDQKVTVEIRKVTKEELSAG [r14_964_TrROS_Hall] | 2.16 ± 0.16 | 4.14 ± 0.23 | 3.77 ± 0.18
SAGGSAGGSTPMSVEEIVERIKEEKRKENPNETVEIEFTAELKGGPEGAPEGIYPVKIKVPPGKSAGGSAGG [r6_79_JUSTAS] | 0.05 ± 0.051 | 0.489 ± 0.071 | 0.208 ± 0.12
SAGGSAGGSMYVVKIKLKVYGENGEEYYFELELEVPEDELGEIEIELPGENLEFEAEVEVLPGSAGGSAGGS [r12_354_TrMRF] | 2.63 ± 0.15 | 3.73 ± 0.12 | 3.38 ± 0.14
SAGFSVEVTYNPPTGYLEIRFYNPPPNKPLKKETLEEIARKLLEELGIEGEIVEIKEEGNVYTIKVKIPSAG [r14_556_TrMRF] | 4.56 ± 0.19 | 4.65 ± 0.068 | 4.62 ± 0.084
KTLVIHAKTPEEILAAIKEAIKEGKTVVIEMSPELIEALKEAGFEIEKIEEVEEIDGKKIYRVVIEVKPKES [r1_173_TrROS_Hall] | 1.66 ± 0.084 | 3.36 ± 0.058 | 2.87 ± 0.2
SAGGSAIIIPIKSAEEILDQLENNPPGRPIHVWAPDGYWIKIEIDPGKGPKIKITEIYPMPPEEAKSAGGSA [r15_577_TrROS] | 0.741 ± 0.026 | 0.984 ± 0.062 | 0.896 ± 0.09
SAGGSAGGSGMTEVVAEKKYPNEVILVTKEPDSYYIVKVTLKDGKVVEKENLGKISPDDPSILSAGGSAGGS [r12_154_JUSTAS] | -0.0464 ± 0.065 | -0.458 ± 0.39 | -0.0617 ± 0.22
SAGMISSVSSEPSTNTTTATIPETGKTITYNPETGTLTVTPPTGNPSVIPVETPEEAERAMEEVIAELSSAG [r5_467_JUSTAS] | 1.11 ± 0.041 | 0.228 ± 0.038 | 0.816 ± 0.079
GSNAVEVTLEVEVTITDPKTPDNKTTTVTIPLTVKLPPSVTSLEELEALARERAEAVAAELGGTVVTVTPVS [r1_300_JUSTAS] | 2.61 ± 0.098 | 2.42 ± 0.067 | 2.49 ± 0.089
SAGGSAGGSAGGKIYYLDKDLFVIDLPDPKTGKPIKIAIGGDPNRPDEILKLAKELAESSAGGSAGGSAGGS [r10_379_TrMRF] | 0.0383 ± 0.039 | -0.398 ± 0.26 | -0.0301 ± 0.2
SAGGSAGGSAGGSSMITVSTTSFPDGTRKVTITEPGTGKPLKTVDMPPSESVSAVKEKLSSAGGSAGGSAGG [r7_633_JUSTAS] | -0.012 ± 0.1 | -0.67 ± 0.2 | -0.245 ± 0.2
SAGGSAIFVVKIEPPNGNPITFMFWFKTPEEAESQVEEIAEQLPPDWKVEVEYIPAEDLKNGKPFFSAGGSA [r15_469_TrROS] | 2.13 ± 0.045 | 2.13 ± 0.043 | 2.2 ± 0.068
SAGGSAGGSAGDDNDGKKKFPMTIKIPPIPIEIPPGMKITSWIPIRIPGGLEFPIIYITPSAGGSAGGSAGG [r11_388_TrROS] | 0.923 ± 0.045 | 1.1 ± 0.12 | 1.03 ± 0.098
SAGGMVKLTVYETPDSYTVTIDLGDKPYTIPVPPGLSPEEAAARAVEELQKAFPDEEVVVESVEYVARSAGG [r13_884_JUSTAS] | 1.1 ± 0.079 | 1.24 ± 0.086 | 1.19 ± 0.068
SAGGSAGGSSAPPGEVRTEAVSLTVRSTVPITYPNSPTTTLSLTTTLTVTLTREVSPVRPEVESAGGSAGGS [r20_14_JUSTAS] | 2.88 ± 0.21 | 3.84 ± 0.085 | 3.34 ± 0.22
SAGELAEKLAEELRKLFPNAEVEVEVVEVKEDYVVVKIRLRVVDEETGEEKTVEVELTLVLKPGEILPSAGG [r19_8_TrROS_Hall] | 3.79 ± 0.14 | 4.66 ± 0.44 | 4.29 ± 0.3
MNLSDPVSVAKLKKALEEIKKAIEELKKKGKKIEILAIELNDDSIKITPVTKSEEYIKKKKEEGIEIILLLS [r1_134_JUSTAS] | 1.52 ± 0.041 | 0.677 ± 0.37 | 1.38 ± 0.2
SAGGSAGGSAGGKKVKVLTLTIELEVKDSNGKKYKVKATVTLIYDEKTKKLYLNISIEPSAGGSAGGSAGGS [r10_795_TrROS_Hall] | 3.95 ± 0.39 | 5.05 ± 0.19 | 4.85 ± 0.31
SAGGMLTGTLVDPVEGIRYTSFYDPSKPSSSITPKPIPPVPPVSLEELAERLRAATGLSREEVLALLESAGG [r13_824_JUSTAS] | 1.02 ± 0.022 | 0.396 ± 0.13 | 0.76 ± 0.072

Sequence | folding stability dG unfold [1] [kcal/mol] | folding stability dG unfold [2] [kcal/mol] | folding stability dG unfold [3] [kcal/mol]
SAGGSAGGSAMPTYDNPDSLSIEEVKEKVAKEAKEKYPGKSNITVPVKFSDGTEYTVTIKIESAGGSAGGSA [r18_449_JUSTAS] | -0.288 ± 0.05 | -0.771 ± 0.21 | -0.405 ± 0.21
SAGAAPGEPVVLVLPDGTVIPVIPRPDGSATLDAVAPSADGTYTVTASLPATGTTVTLELSAPPSFVAASAG [r5_394_TrMRF] | 1.43 ± 0.038 | 0.824 ± 0.052 | 1.16 ± 0.043
MKIKEVKVFPLPGENTIVILVTGEFDSFYIPETGKPIPSSAKITLIEVIKVPEDSDEAEVESSLLILPDAES [r1_147_TrMRF] | 1.08 ± 0.067 | 1.46 ± 0.067 | 1.4 ± 0.16
SAGGSAGGSAGGKIIHPDLKKPLDVLEKFELIIGGKPYLFFLSRGEGELRLLVIPAGKESAGGSAGGSAGGS [r10_517_TrMRF] | 1.54 ± 0.021 | 2.53 ± 0.055 | 2.15 ± 0.048
SAGMTVTFTLDFPANGGPITITVYHGDKAEEITVPKNETVTITVDLDPNDGLTIRAHYPDGSYVEFPIGSAG [r5_187_TrMRF] | 3.46 ± 0.16 | 4.65 ± 0.053 | 4.5 ± 0.09
SAGGTSPVTIPVTFDDLPPDAVDEAKARAEELAEELRAQGHEVLSVTIEIEPGRVTVTLTVTFPGGAPLSAG [r5_515_JUSTAS] | 1.93 ± 0.081 | 0.623 ± 0.054 | 1.3 ± 0.12
SAGGKYVMFPFDSPEDLKDLLPPGYPVEIHMMPPKGKHRTRTFTPDEIKLELPPGENFYFMIKVKPPDSAGG [r13_461_TrROS] | 1.55 ± 0.16 | 1.94 ± 0.33 | 1.74 ± 0.2
SAGGSAGGSAMKYYVTITFTDPNNGNTTTEIKEVTTEEEVEKVVEELAPSSYASVKVSIKPKSAGGSAGGSA [r18_258_JUSTAS] | 0.304 ± 0.059 | 1.16 ± 0.28 | 0.892 ± 0.2
SSSSMKTITLEKKITSPEEAEALREELLKKGYEVEVKVYPHPDSYIAKITVTIEVPPPPLSPTNPSALLKSA [r9_863_JUSTAS] | 1.19 ± 0.061 | 0.913 ± 0.2 | 0.967 ± 0.22
SAGGNLDKEFVRDIIENFGFTRIEVEEHPNRKVVTFRFENMDVVIRPDGQIEIENPGGEPVFQIEVPSAGGS [r8_147_TrROS] | 1.31 ± 0.031 | 1.63 ± 0.11 | 1.53 ± 0.21
SAGGSAKTIKIWIPVKGMTPEMLEEIARDILEELGMKVDIEPHPGDGYIEVTFKLPGKDIEIIIPWSAGGSA [r15_168_TrROS] | 2.04 ± 0.062 | 3.04 ± 0.1 | 2.61 ± 0.16
SAGGKLKIKIGDKEYTVESVEIIEERPLPGGGPVYLIRLKFKDGPALIEIPPNIPSSISNNGTLVAGSAGGS [r16_638_TrMRF] | 1.36 ± 0.04 | 1.95 ± 0.058 | 1.75 ± 0.095
SAGGSAGGSDFKPVLVIELDDKTVLVFELEDGTVLVLAENEIALIPASIPAEHFPEDAKLDLDSAGGSAGGS [r12_594_TrMRF] | 2.04 ± 0.12 | 1.76 ± 0.052 | 1.85 ± 0.065
SAGGSAGGSAGPMEVERETIMIPIDPDKGYYIMIDVWRYKNPGGPPFPAPSISIMDLDDLSAGGSAGGSAGG [r11_51_TrROS] | 1.78 ± 0.072 | 3.11 ± 0.045 | 2.68 ± 0.11
SMLTITDENGNTITLPAAGEPVTLTVEIEVDGYTVTVEITFDADTKKITIKVEVTNPNGEKQTFTFTFDLSA [r9_1073_TrROS_Hall] | 2.92 ± 0.12 | 4.23 ± 0.083 | 3.84 ± 0.16
SAGGKKYKVIKEIEITLENGKKIKIKLIEYNEKTNEYILEITYPDGKKITITVPKGMSIEEALKKLLSSAGG [r13_470_TrROS_Hall] | 2.37 ± 0.16 | 2.52 ± 0.051 | 2.41 ± 0.12
SAKKIILIKAESEEELKKAIEEAKKLAEEGKKVEIIIETPKGLILIEIDVKTKKIKIKNLETGEEIELESAG [r14_423_TrROS_Hall] | 1.49 ± 0.1 | 0.375 ± 0.1 | 1.19 ± 0.23
SAGGSAGGSDPPVVTVEVKEETLPNGEKIYIVTVTREDGTTKTLKFPASTSEEEIKEKVEKLLSAGGSAGGS [r12_1019_JUSTAS] | 3.64 ± 0.3 | 4.08 ± 0.18 | 4.17 ± 0.35
SAMSPEEIRARARALLEEKYPDKPYTLLSVEVDPSTGRVTVTWESPTPEKTTVTTPLTVTFGADGSLRESAG [r14_183_JUSTAS] | 2.028 ± 0.012 | 1.973 ± 0.017 | 2.02 ± 0.029
SAGGSAGGSAGPFTIMVIERVPPDDPEYDKLHKDNGMPPENMIRIKIFRFKSPEQLKELFSAGGSAGGSAGG [r11_83_TrROS] | 1.82 ± 0.038 | 2.12 ± 0.06 | 2.08 ± 0.086
SAGGSAGGSDWRPIKIWYPLDDLEQIKEKIREDGITVEINVQRDPNGKLYAPVTIWVPKGAKPSAGGSAGGS [r12_653_TrROS] | 0.998 ± 0.039 | 1.57 ± 0.032 | 1.32 ± 0.15
